Holding throughout (conditions): Homo sapiens
Substrate in series [1]: CC(=O)N1Cc2ccccc2C[C@H]1C(=O)NCC(=O)N1C2CCCCC2C[C@H]1C(=O)N[C@@H](CCCNC(=N)N)C(=O)Nc1ccc2c(CC(N)=O)cc(=O)oc2c1
Nature of the series: (§1) Substrate activity at Granzyme A (unknown origin) expressed in Pichia pastoris incubated for 30 mins by fluorescence based assay.

Substrate in series [2]: CC[C@H](C)[C@H](NC(C)=O)C(=O)NCC(=O)N1CCC[C@H]1C(=O)N[C@@H](CCCNC(=N)N)C(=O)Nc1ccc2c(CC(N)=O)cc(=O)oc2c1
Described as §1.

Substrate in series [3]: CC(=O)N1Cc2ccccc2C[C@H]1C(=O)NCC(=O)N1C2CCCCC2C[C@H]1C(=O)N[C@@H](CCCNC(=N)N)C(=O)Nc1ccc2c(CC(N)=O)cc(=O)oc2c1
As to the kind of experiment: Substrate activity at Granzyme K (unknown origin) expressed in Pichia pastoris incubated for 30 mins by fluorescence based assay.

As a reminder, the Km is the substrate concentration at which the rate is half of its maximum. One may read the kcat as the maximal rate divided by the concentration of active sites. What is called kcat/Km is the turnover number divided by the Michaelis constant.

B1: Granzyme A (Homo sapiens), P12544 (protein)
chain: MRNSYRFLASSLSVVVSLLLIPEDVCEKIIGGNEVTPHSRPYMVLLSLDRKTICAGALIAKDWVLTAAHCNLNKRSQVILGAHSITREEPTKQIMLVKKEFPYPCYDPATREGDLKLLQLMEKAKINKYVTILHLPKKGDDVKPGTMCQVAGWGRTHNSASWSDTLREVNITIIDRKVCNDRNHYNFNPVIGMNMVCAGSLRGGRDSCNGDSGSPLLCEGVFRGVTSFGLENKCGDPRGPGVYILLSKKHLNWIIMTIKGAV
As to B1, in series [1], the Km was determined as 87.4 µM, the kcat came out at 0.27 s⁻¹ and the kcat/Km was 3100 M⁻¹ s⁻¹. In series [2], the Km came out at 450 µM, the kcat stood at 0.035 s⁻¹ and the kcat/Km worked out at 78 M⁻¹ s⁻¹.

B2: Granzyme K (Homo sapiens), P49863 (protein)
chain: MTKFSSFSLFFLIVGAYMTHVCFNMEIIGGKEVSPHSRPFMASIQYGGHHVCGGVLIDPQWVLTAAHCQYRFTKGQSPTVVLGAHSLSKNEASKQTLEIKKFIPFSRVTSDPQSNDIMLVKLQTAAKLNKHVKMLHIRSKTSLRSGTKCKVTGWGATDPDSLRPSDTLREVTVTVLSRKLCNSQSYYNGDPFITKDMVCAGDAKGQKDSCKGDSGGPLICKGVFHAIVSGGHECGVATKPGIYTLLTKKYQTWIKSNLVPPHTN
In the case of B2, in series [3], the Km result is recorded as “Not Active”, the kcat result is “Not Active” and the kcat/Km entry was “Not Active”.

(Values after ChEMBL document CHEMBL4342470, “Detection of Active Granzyme A in NK92 Cells with Fluorescent Activity-Based Probe” (J Med Chem, 2020).)
